According to patent US20050096268A1:

Assays:
murine IL-13 (murine) = murine IL-13 (murine) (UniProt P20109); test: cell-based or functional assay
human IL-13 (human) [1] = biological target: human IL-13 (human) (UniProt P35225); test: Biacore SPR; human IgG1 immobilized, 100 ng/ml human IL-13 injected
human IL-13 (human) [2] = biological target: human IL-13 (human) (UniProt P35225); test: Biacore SPR; IL-11R-Ig immobilized, 100 ng/ml human IL-13 injected

Chain of UniProt P35225 (P35225 35-146 limits assumed): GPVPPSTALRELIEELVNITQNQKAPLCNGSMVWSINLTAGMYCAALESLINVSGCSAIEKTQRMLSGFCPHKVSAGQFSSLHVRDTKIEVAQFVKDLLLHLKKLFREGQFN
Chain of UniProt P20109 (P20109 21-131 limits assumed): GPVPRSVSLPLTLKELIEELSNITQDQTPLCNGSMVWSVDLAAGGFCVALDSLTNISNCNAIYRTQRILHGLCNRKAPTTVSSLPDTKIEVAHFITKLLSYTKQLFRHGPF

## soluble IL-13 receptor α2-Fc fusion protein (sIL-13Rα2-Fc) (from UniProt O88786 22-331)
Murine IL-13 (murine)
  in vitro ID50 in the B9 proliferation assay: 10 ng/mL

## human IgG1 (IgG control) (antibody)
Human IL-13 (human) [1]
  RU bound: 5.4 RU

## IL-11R-Ig (Fc fusion)
Human IL-13 (human) [2]
  RU bound: 3.7 RU
